Test results published in patent US20160194394A1 (GOVERNING COUNCIL OF THE UNIVERSITY OF TORONTO, published 2016).
Changes are numbered by the printed parent chain.

B1: B2 (Fab)
light: DIQMTQSPSSLSASVGDRVTITCRASQSVSSAVAWYQQKPGKAPKLLIYSASSLYSGVPSRFSGSRSGTDFTLTISSLQPEDFATYYCQQAYAYLITFGQGTKVEIKRTVAAPSVFIFPPSDSQLKSGTASVVCLLNNFYPREAKVQWKVDNALQSGNSQESVTEQDSKDSTYSLSSTLTLSKADYEKHKVYACEVTHQGLSSPVTKSFNRGECGGS
heavy: EVQLVESGGGLVQPGGSLRLSCAASGFNISYSSMHWVRQAPGKGLEWVASISSSYGYTYYADSVKGRFTISADTSKNTAYLQMNSLRAEDTAVYYCARSGGHFYYWYVAAAMDYWGQGTLVTVSSASTKGPSVFPLAPSSKSTSGGTAALGCLVKDYFPEPVTVSWNSGALTSGVHTFPAVLQSSGLYSLSSVVTVPSSSLGTQTYICNVNHKPSNTKVDKKVEPKSC
notes: selection round 2; not the round 3 clone B2 (f33); also called Fzd7-R2-B2
B2: B7 (Fab)
light: B1 light with A93Y, Y94P, I96F
heavy: EVQLVESGGGLVQPGGSLRLSCAASGFNISYSSMHWVRQAPGKGLEWVASIYPSYGYTSYADSVKGRFTISADTSKNTAYLQMNSLRAEDTAVYYCARVYWSSSYWAGGYWVGSAFDYWGQGTLVTVSSASTKGPSVFPLAPSSKSTSGGTAALGCLVKDYFPEPVTVSWNSGALTSGVHTFPAVLQSSGLYSLSSVVTVPSSSLGTQTYICNVNHKPSNTKVDKKVEPKSC
notes: selection round 3; also called Fzd7-R3-B7
B3: C12 (Fab)
light: B1 light with A91S, Y92S, A93Y, Y94S
heavy: EVQLVESGGGLVQPGGSLRLSCAASGFNLSYSYMHWVRQAPGKGLEWVASIYSSYGYTSYADSVKGRFTISADTSKNTAYLQMNSLRAEDTAVYYCARYYGWAYYYSYFPAWAGGGIDYWGQGTLVTVSSASTKGPSVFPLAPSSKSTSGGTAALGCLVKDYFPEPVTVSWNSGALTSGVHTFPAVLQSSGLYSLSSVVTVPSSSLGTQTYICNVNHKPSNTKVDKKVEPKSC
notes: selection round 2; same four CDRs as Fzd7-R3-B2 (f33); also called Fzd7-R2-C12
B4: C1 (Fab)
light: B1 light with A91Y, Y92G, A93H
heavy: EVQLVESGGGLVQPGGSLRLSCAASGFNLYSYSMHWVRQAPGKGLEWVASISSYYGSTYYADSVKGRFTISADTSKNTAYLQMNSLRAEDTAVYYCARAHGSSPGWYYAPYAGGGLDYWGQGTLVTVSSASTKGPSVFPLAPSSKSTSGGTAALGCLVKDYFPEPVTVSWNSGALTSGVHTFPAVLQSSGLYSLSSVVTVPSSSLGTQTYICNVNHKPSNTKVDKKVEPKSC
notes: selection round 2; also called Fzd7-R2-C1
B5: B11 (Fab)
light: DIQMTQSPSSLSASVGDRVTITCRASQSVSSAVAWYQQKPGKAPKLLIYSASSLYSGVPSRFSGSRSGTDFTLTISSLQPEDFATYYCQQYFYSSYSPITFGQGTKVEIKRTVAAPSVFIFPPSDSQLKSGTASVVCLLNNFYPREAKVQWKVDNALQSGNSQESVTEQDSKDSTYSLSSTLTLSKADYEKHKVYACEVTHQGLSSPVTKSFNRGECGGS
heavy: EVQLVESGGGLVQPGGSLRLSCAASGFNISYSYMHWVRQAPGKGLEWVAYIYPSYSSTSYADSVKGRFTISADTSKNTAYLQMNSLRAEDTAVYYCARASYWALDYWGQGTLVTVSSASTKGPSVFPLAPSSKSTSGGTAALGCLVKDYFPEPVTVSWNSGALTSGVHTFPAVLQSSGLYSLSSVVTVPSSSLGTQTYICNVNHKPSNTKVDKKVEPKSC
notes: selection round 2; also called Fzd7-R2-B11
B6: H8 (Fab)
light: B5 light with Y91S, S94W, S95G, S97P, I99F
heavy: EVQLVESGGGLVQPGGSLRLSCAASGFNIYSSSIHWVRQAPGKGLEWVASIYSYYGYTYYADSVKGRFTISADTSKNTAYLQMNSLRAEDTAVYYCARWYAFDYWGQGTLVTVSSASTKGPSVFPLAPSSKSTSGGTAALGCLVKDYFPEPVTVSWNSGALTSGVHTFPAVLQSSGLYSLSSVVTVPSSSLGTQTYICNVNHKPSNTKVDKKVEPKSC
notes: selection round 2; also called Fzd7-R2-H8
B7: A7 (Fab)
light: DIQMTQSPSSLSASVGDRVTITCRASQSVSSAVAWYQQKPGKAPKLLIYSASSLYSGVPSRFSGSRSGTDFTLTISSLQPEDFATYYCQQYHYGYYPFTFGQGTKVEIKRTVAAPSVFIFPPSDSQLKSGTASVVCLLNNFYPREAKVQWKVDNALQSGNSQESVTEQDSKDSTYSLSSTLTLSKADYEKHKVYACEVTHQGLSSPVTKSFNRGECGGS
heavy: B5 heavy with I29L, Y31S, M34I, P53S, S56G, S59Y, Y101W, L104I
notes: selection round 2; also called Fzd7-R2-A7
B8: G12 (Fab)
light: DIQMTQSPSSLSASVGDRVTITCRASQSVSSAVAWYQQKPGKAPKLLIYSASSLYSGVPSRFSGSRSGTDFTLTISSLQPEDFATYYCQQWGYGALITFGQGTKVEIKRTVAAPSVFIFPPSDSQLKSGTASVVCLLNNFYPREAKVQWKVDNALQSGNSQESVTEQDSKDSTYSLSSTLTLSKADYEKHKVYACEVTHQGLSSPVTKSFNRGECGGS
heavy: EVQLVESGGGLVQPGGSLRLSCAASGFNISYSSIHWVRQAPGKGLEWVASIYPSPGYTSYADSVKGRFTISADTSKNTAYLQMNSLRAEDTAVYYCARHGWYGLDYWGQGTLVTVSSASTKGPSVFPLAPSSKSTSGGTAALGCLVKDYFPEPVTVSWNSGALTSGVHTFPAVLQSSGLYSLSSVVTVPSSSLGTQTYICNVNHKPSNTKVDKKVEPKSC
notes: selection round 2; also called Fzd7-R2-G12

target: T1, FZD7 receptor expressed on cells (full-length) (UniProt O75084 33-574, limits assumed); test: flow cytometry, 200 nM Fab, FZD7 over-expression line (MDA MB 231) [cont'd]
T1 construct: whole, on cells; MDA MB 231 cells may carry other Frizzled receptors too; also called full-length FZD7 receptor; endogenous receptor on MDA MB 231 cells
Procedure: (§1) FIG. 3 is a table depicting the binding of the purified Fabs to cells expressing FZD7 (flow cytometry). Small scale Fabs were assayed for binding to full-length FZD7 receptor to an over-expression line in MDA MB 231 cells. In parallel, Fabs were assayed for binding to endogenous receptor expressed on the MDA MB 231 cells. Cells were harvested using an EDTA solution, blocked in 2% FBS/PBS (stain buffer), and stained with 200 nM Fab for 30 min on ice. Cells were washed two times with stain buffer and incubated with anti-F(ab′)₂-APC secondary antibody (Jackson Immuno) at 1:1000 for 15 minutes on ice. All antibodies were diluted in stain buffer. Cells were washed three times with stain buffer and then fixed with 1% paraformaldehye for analysis by flow cytometry. […] The percent of the cell population within the positive gates is indicated.

| % population within the positive gate [%] | Binder |
| --- | --- |
| 86.8 | B1 |
| 80.1 | B2 |
| 86.9 | B3 |
| 87.3 | B4 |
| 91.2 | B5 |
| 79.6 | B6 |
| 92.7 | B7 |

target: T1, FZD7 receptor expressed on cells …; test: flow cytometry, 200 nM Fab, FZD7 over-expression line (MDA MB 231)
Procedure: as §1

| % population within the positive gate [%] | Binder |
| --- | --- |
| 83.8 | B8 |

target: T2, recombinant Frizzled receptor 7 (FZD7) cysteine-rich domain (CRD) fused to the Fc region of human IgG (human, UniProt O75084 33-185); test: ELISA, 1ug/ml (20nM) Fab
Procedure: (§2) FIG. 2B is a table depicting the binding of purified Fabs to purified FZD7-Fc measured by ELISA. Fabs purified from 25 ml bacterial cultures were assayed for binding to FZD7-Fc fusion protein (R&D systems) and Fc protein. ELISA plates (384 well) were coated with 2 ug/ml of protein in PBS overnight at four degrees. Wells were blocked with 0.5% BSA/PBS for 1 hour at room temperature, washed three times with 0.05% Tween20/PBS (wash buffer), and then primary dilutions of Fabs in 0.5% BSA/0.05% Tween20/PBS (dilution buffer) were added at indicated concentrations. Fabs were incubated for 1 hour at room temperature, wells were washed six times, and anti-FLAG-HRP (Sigma) was added at 1:5000 in dilution buffer. Secondary antibody was incubated for 45 minutes at room temperature, and wells were washed six times and developed with TMB substrate with an acid stop. The absorbance at 450 nm was read. n.t.=not tested.

| OD 450 | Binder |
| --- | --- |
| 3.13 | B8 |

target: T3, Fc control protein; test: ELISA, 1ug/ml (20nM) Fab
T3 construct: also called Fc protein; control Fc protein
Procedure: as §2

| OD 450 | Binder |
| --- | --- |
| 0.06 | B8 |

target: T1, FZD7 receptor expressed on cells …; test: flow cytometry, 200 nM Fab, MDA MB 231 [cont'd]
Procedure: as §1

| % population within the positive gate [%] | Binder |
| --- | --- |
| 7.1 | B1 |
| 0.7 | B2 |
| 11.9 | B3 |
| 66.5 | B4 |
| 97.2 | B5 |
| 1.1 | B6 |
| 96.3 | B7 |

target: T2, recombinant Frizzled receptor 7 (FZD7) …; test: ELISA, 10ug/ml (200nM) Fab [cont'd]
Procedure: as §2

| OD 450 | Binder |
| --- | --- |
| 3.18 | B1 |
| 3.06 | B2 |
| 3.15 | B3 |
| 3.19 | B4 |
| 3.2 | B5 |
| 2.7 | B6 |
| 3.22 | B7 |

target: T3, Fc control protein; test: ELISA, 10ug/ml (200nM) Fab [cont'd]
Procedure: as §2

| OD 450 | Binder |
| --- | --- |
| 0.13 | B1 |
| 0.07 | B2 |
| 0.07 | B3 |
| 0.14 | B4 |
| 0.08 | B5 |
| 0.08 | B6 |
| 0.07 | B7 |

target: T2, recombinant Frizzled receptor 7 (FZD7) …; test: ELISA, 10ug/ml (200nM) Fab
Procedure: as §2

| OD 450 | Binder |
| --- | --- |
| 3.19 | B8 |

target: T3, Fc control protein; test: ELISA, 10ug/ml (200nM) Fab
Procedure: as §2

| OD 450 | Binder |
| --- | --- |
| 0.14 | B8 |

target: T2, recombinant Frizzled receptor 7 (FZD7) …; test: ELISA, 1ug/ml (20nM) Fab [cont'd]
Procedure: as §2

| OD 450 | Binder |
| --- | --- |
| 3.19 | B1 |
| 2.12 | B2 |
| 2.87 | B3 |
| 3.15 | B4 |
| 3.15 | B5 |
| 0.78 | B6 |
| 3.19 | B7 |

target: T3, Fc control protein; test: ELISA, 1ug/ml (20nM) Fab [cont'd]
Procedure: as §2

| OD 450 | Binder |
| --- | --- |
| 0.06 | B1 |
| 0.06 | B2 |
| 0.05 | B3 |
| 0.06 | B4 |
| 0.05 | B5 |
| 0.06 | B6 |
| 0.07 | B7 |

target: T1, FZD7 receptor expressed on cells …; test: flow cytometry, 200 nM Fab, MDA MB 231
Procedure: as §1

| % population within the positive gate [%] | Binder |
| --- | --- |
| 33.3 | B8 |
